Assay [1] addresses human CLDN18.2 on cells (human) (UniProt P56856). Briefly: flow cytometry on SNU601 cells.
Assay [2] shares this target. Briefly: flow cytometry on hCLDN18.2-expressing HEK293 cells. (In general: A flow cytometer gives signals particle by particle.)

In patent US20240117035A1 one finds IC50 data, which are given here for 1 molecule.

B1: m-anti-human CLDN18.2-13 monoclonal antibody (antibody, mouse IgG2a, kappa, V domains shown)
VH: QLQLQQSGTELVRPGSSVKISCKASGYAFSNYWMNWVKQRPGQGLEWIGQIYPGNGDTKYNGNFKGKATLTADKSSSTAYMQLSSLTSEDSADYFCARYYRGNCFDYWGQGTTLTVSS
VL: DIVLTQSPSSLTVTAGEKVTMSCKSSQSLLNSGNQKNYLTWYQQKPGQPPKLLIYWASTRDSGVPARFTGSGSGTDFTLTINSVQAEDLAVYYCQNAYTYPLTFGAGTKLEIKR
What is called IC50 is the concentration that gives 50% inhibition. A high value points to a need for much substance. Consider B1, for which the IC50 in assay [1] was found to be 0.811 mg/L; in assay [2], 0.701 mg/L.
